Results taken from paper PMC8202348 (2021).

Columns and labels:
[1] = target: GL3^552–637, N6His- and GST-tagged recombinant protein (Arabidopsis) (UniProt Q9FN69); experiment: AlphaScreen or HTRF; ALPHA competition binding, apparent Kd; 100 nM N6His-tagged and 100 nM GST-tagged copies with untagged competitor (R^ACT 0–8 μM, GL3^ACT 0–10 μM); room temperature 2 h; one-site fit
[2] = target: R^525–610, N6His- and GST-tagged recombinant protein (maize); experiment: AlphaScreen or HTRF; ALPHA saturation binding, apparent Kd; N6His-tagged and GST-tagged copies, one at 100 nM (R^ACT) or 500 nM (GL3^ACT), the other 0–4 μM (R^ACT) or 0–5 μM (GL3^ACT); Nickel Chelate donor and anti-GST acceptor beads; room temperature 2 h; one-site fit
[3] = target: the molecule itself; experiment: biological repeat 2
[4] = target: R^525–610 V568S, N6His- and GST-tagged recombinant protein (maize); experiment: AlphaScreen or HTRF; ALPHA saturation binding, apparent Kd; N6His-tagged and GST-tagged copies, one at 100 nM (R^ACT) or 500 nM (GL3^ACT), the other 0–4 μM (R^ACT) or 0–5 μM (GL3^ACT); Nickel Chelate donor and anti-GST acceptor beads; room temperature 2 h; one-site fit
[5] = target: T1, R^525–610 L569H, N6His- and GST-tagged recombinant protein (maize); experiment: biological repeat 1
T1 chain: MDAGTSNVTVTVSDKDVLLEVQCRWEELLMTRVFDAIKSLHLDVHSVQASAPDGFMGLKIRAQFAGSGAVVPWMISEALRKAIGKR

[6] = target: T2, R^525–610 A573S, N6His- and GST-tagged recombinant protein (maize); experiment: biological repeat 1
T2 chain: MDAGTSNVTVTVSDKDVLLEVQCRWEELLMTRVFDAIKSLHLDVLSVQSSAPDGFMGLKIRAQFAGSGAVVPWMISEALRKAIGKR

[7] = target: the molecule itself; experiment: biological repeat 1
[8] = target: T1, R^525–610 L569H, N6His- and GST-tagged …; experiment: biological repeat 2
[9] = target: T2, R^525–610 A573S, N6His- and GST-tagged …; experiment: biological repeat 2

Work on “untagged GL3^552–637 (from UniProt Q9FN69 552-637) (domain or fragment)” yielded a Kd [1] of 1280 nM.

B1: R^525–610, N6His- and GST-tagged recombinant protein (domain or fragment)
chain: MDAGTSNVTVTVSDKDVLLEVQCRWEELLMTRVFDAIKSLHLDVLSVQASAPDGFMGLKIRAQFAGSGAVVPWMISEALRKAIGKR
Molecule B1 has a Kd [2] of 100 nM and a Kd [3] of 90 nM.

B2: R^525–610 V568S, N6His- and GST-tagged recombinant protein (domain or fragment)
chain: MDAGTSNVTVTVSDKDVLLEVQCRWEELLMTRVFDAIKSLHLDSLSVQASAPDGFMGLKIRAQFAGSGAVVPWMISEALRKAIGKR
B2 showed a Kd [4] of 1720 nM, a Kd [5] of 340 nM and a Kd [6] of 290 nM. The Kd [7] was 1850 nM, the Kd [8] was 310 nM and the Kd [9] was 250 nM.
